Measurements as given in the DeepSol protein solubility set.

Assay: soluble on expression in E. coli; label from the status in PepcDB or PDB records

Soluble on expression in E. coli, not soluble:
MGSDKIHHHHHHVSKILIIYSSVHGQTRKLCDFMQRELEALEHSVTCASIDNPPAMEGFDKIVLGASIRHGKHNPRVYDFIRENIKVLQEKASSFFSVSLVARKPAKNTPETNPYMQAFLAKSPWQPKLLAVFGGNLDYQGYNALDRNIIRFIMWITKGPTAPDTKVEYTDWDKVKHYAQQVDAL
MGSDKIHHHHHHMQWFENPLFSERVEFLESSQYWPAERHAVYQLRSLRRLVHHVAAHVPFYRDFMAASGIRPEDILSIEDIKRFPIIDKKVIQAQPEAFLADGSDRATLLHRTTGGSTGTPLTVWFDGDLLARDKANTEHYMRAIGLDIFTWKSIRLYGDKIDPEITDTGRYWKLVDGRRLVMSCYHITHETAPAYVAELNRFRPRYIHTRPSSILPLAKYILQDGLALDPIRTIVSDGEYLTDGQRAVIERAFQGRLYNIYGHTEACVVGHPCHHSDGLHLMPQVGVTELLDEQGRDVTEPGGRGELVVTGFNNPVMPLIRYRTGDVAYLGEGGCRCGRHYQMLKGIEGRLQDYVIDAAGNPTPLAPAVFNYNDMDWKGIKEFKVIQDTPGELTILIVLEAELAADPAGSKAVLEQRIGAILAGFRISITLVDDIPKTKIGKHRYLDQRLDVKELVSFR
MRLYWRMPTTTPALRPQDLTETAFAPYGWMLGKPLPAGDDVLRFSNPATDFWQEHVFDTGAGAGRETEVLWVNYRISQPGFDTLEKHLLTQQAIVPLTGAIVQIVARSAFDGSPDLASLAAFVVPPGQGICMRPGCWHATRISGGEVTCLMLTRRSTTLDLVRHLHGEPARESEIVAIVPHGLDLPARPTAEGPAPHGRLEHHHHHH
MGSDKIHHHHHHMTPEKIEQIFRSFKEKKIAVIGDVMIDKYIFGHVSRISPEYPVPVVDVNRESSRLGGAANVAVNIHALGAEALLIGVTGDDTERRNLEALMTEHGLNPAMLAADSTRPTTCKTRILSQNHHITRVDYESRTPVDAELEKRLLGMFMEIANAVDAVVLEDYNKGVLTPSLIVSLIAACRERNKPVLVDPKLKGFFSYGGCSVFKPNLSELAASLGIPVANDDREVEQACLLLGEKLTVESLVVTRSEKGMTVYDGSFTHIPALSLDVADVSGAGDTVIGTLALGLASGLDLVTSTRIANLAANTVCQEVGAVPVRPDKLFSACLAHLQ
METQIHQLEQEAYTAVLRAFKAQSDAISWEKESLITELRKELRVSDDEHRELLSRVNKDDTIQRIRDWRQGGASQITRHATIQPFDVLPSPTFSAARKKQKTFPSYNPSIGATGNRSFNNRLVSSGISGNESAEALIGRKVWTKWPEDNHFYEAIITQYNADEGRHALVYDIHAANETWEWVDLKEIPPEDIRWDGEESGVALNIGHGSASFRGNRRGQIHGGRGRGPRIHQPRRELVPPPTQQNGSGGRRTSSDDIELFNTDSLVKEVERVFDSTHPDPLELDKAKKMLKEHEQALIAAIARLADTSDGEMDGDPPYSHDHPMPQG
MGSDKIHHHHHHMATNSSTEQSLTKKVWNLATTLAGQGIGFTDYITQLTYLLFLKMDAENVEMFGEESAIPTGYQWADLIAFDGLDLVKQYEETLKLLSELDNLIGTIYTKAQNKIDKPVYLKKVITMIDEEQWLIMDGDVKGAIYESILEKNGQDKKSGAGQYFTPRPLIQAMVDCINPQMGETVCDPACGTGGFLLTAYDYMKGQSASKEKRDFLRDKALHGVDNTPLVVTLASMNLYLHGIGTDRSPIVCEDSLEKEPSTLVDVILANPPFGTRPAGSVDINRPDFYVETKNNQLNFLQHMMLMLKTGGRAAVVLPDNVLFEAGAGETIRKRLLQDFNLHTILRLPTGIFYAQGVKANVLFFSKGQPTKEIWFYDYRTDIKHTLATNKLERHHLDDFVSCYNNRVEIYDAENNPQGRWRKYPVDEIIARDKTSLDITWIKPGGEVDDRSLAELMADIKDKSQTISRAVTELEKLLANIEEN
MGSDKIHHHHHHMKVLDVIKQIQQAIVYIEDRLLEPFNLQELSDYVGLSPYHLDQSFKMIVGQSPEEYARARKMTIAANDVVNGASRLMDVAKKYRYANSNDFANDFSDFHGISPIQATTKKDELKIQQRLYIKLSTTENAPYTYRLQETDDISLVGYSRFIPTEQLSNPFNIPDFLEDLLVDGYIKELKRYNDTSPYELFVVSCPLEQGLEIFVGVPSERYPSHLESRFLPGRHYALFNLQGEIDYATNEAWYYIESSLQLTLPYERNSLYVEIYPLDISFNDPFTKIQLWLPIKQEIYDLDEGYQN
MGHHHHHHSHMRDCCGMVSSGSLSSLKAAERTPGALFFSSSTPGRYYNYDSSSRPQSRSVMSDQCAGQWFLKACGLGEGDTEVFPTQHVVRALQTIFELNVQAFAGGAMGAVNGMQPHGVPDKSSVQSDEVWVGVVYGLAATMIQEVMHSFSHLSTICILAQKTSSTTKFLQGITQCHLVRL
NPIEMDYIRQIEDVNNRRMKALRPPHRKEVLKAREDDIKDRVQNWMSRENEPRLQRISSELLKEYDSTELVASLLQELVEANDEVE
MAHHHHHHMFSFYIYRKKTISWDEVTINEQDKERGSRMKILEPNTPFNFILMDSASEDEASKYGDVKGSDEGQNNIADDLINKLNQLVEKQENKGVSNIDFKEKRKKHYNEYKMLQKLRKSGTLDDIDEEYKPDNKDSNCDNSVSQEFPCYIARNFVVISL
MREELIEKIKKAGVVGAGGAGFPTHVKVNSKARTVLVNGAECEPLLRVDQQLMAGQASKVVMGLELVMSVTGAKEGIISLKHKYHDAISALEKEISGKPIRIHILDDFYPAGDEHVTVYESTGRLVPQGSIPLKVDCVVHNVETLLNTVDAVADQPVTDTYLTITGEVNQPLTLRLPIGTAISEALAMAGYHDSGGMQVIEGGPMMGKIVADLHQPITKTTKGLIVLPREHPLLRLKTLPADKVLRQSRVSCVQCRFCTDLCPRYLLGHQLEPHKIMRMVNYGQGQEETMKMAFACSECGVCEQYACIMGLSPRAVNALLKKELTRLGIKPSPSPADQAVDPLQPHRKIPVKRLISRLALQDYDRNAPLQERDYPIDRVAIKLCQHVGAPSVPTVKAGQKVKKGDPIASPPAKGLGSYLHASIDGVVQEITDSILISARKGSETQPWNPSV

Soluble on expression in E. coli, soluble:
MSLCAAHAARPLALVMRLGYETAMSQIESLFVTRLYRARLSEHGPAIDPEEMEASCYSIAEDDEAGQEWCEENGYPGYTSYASLTDLPWRFPIFADLVTSLDAHVAAFAADLEFDLDGRKLVLEDLWINILPQGGMHSSHLHPHSVISGTTYVAMPEGASALKLEDPRSGRMMAAPTRTKTARRELQPFIYMKPDVGDVLLWESWLRHEVPMNMSEEERISVSFNYRWDEGHHHHHH
MWLTKLVLNPASRAARRDLANPYEMHRTLSKAVSRALEEGRERLLWRLEPARGLEPPVVLVQTLTEPDWSVLDEGYAQVFPPKPFHPALKPGQRLRFRLRANPAKRLAATGKRVALKTPAEKVAWLERRLEEGGFRLLEGERGPWVQILQDTFLEVRRKKDGEEAGKLLQVQAVLFEGRLEVVDPERALATLRRGVGPGKALGLGLLSVAP
MSRRLPPLNSLRVFEAAARHLSFTRAAEELFVTQAAVSHQIKALEEFLGLKLFRRRNRSLLLTEEGQSYFLDIKEIFSSLSEATDKVLERSAKGALTISLPPSFAIQWLVPRLSDFNNQEPDIDVRIKAVDMDEGSLTEDVDVAIYYGRGNWPGLRVELLYQEQLLPLCSPQVLLNEKPLATIDDLRFHTLLHDTSRKDWKQFVKHYELAGMNVNQGPIFSHSTMVLQAAAHGQGIALGNNVLAQPELDAGRLVAPFEEVLVSKNAFYLVCNEKQADTGRIATFREWILSKARSEQEIVDDE
DITVYNGQHKEAAQAVADAFTRATGIKVKLNSAKGDQLAGQIKEEGSRSPADVFYSEQIPALATLSAANLLEPLPASTINETRGKGVPVAAKKDWVALSGRSRVVVYDTRKLSEKDLEKSVLNYATPKWKNRIGYVPTSGAFLEQIVAIVKLKGEAAALKWLKGLKEYGKPYAKNSVALQAVENGEVDAALINNYYWHAFAREKGVQNVHTRLNFVRHRDPGALVTYSGAAVLKSSQNKDEAKKFVAFLAGKEGQRALTAVRAEYPLNPHVVSTFNLEPIAKLEAPQVSATTVSEKEHATRLLEQAGMK
SEEAGSVALEELVEKEKDRFFSGVDYIVISDNLWISQRKPAITYGTRGNSYFMVEVKCRDQDFHSGTFGGILHEPMADLVALLGSLVDSSGHILVPGIYDEVVPLTEEEINTYKAIHLDLEEYRNSSRVEKFLFDTKEEILMHLWRYPSLSIHGIEGAFDEPGTKTVIPGRVIGKFSIRLVPHMNVSAVEKQVTRHLEDVFSKRNSSNKMVVSMTLGLHPWIANIDDTQYLAAKRAIRTVFGTEPDMIRDGSTIPIAKMFQEIVHKSVVLIPLGAVDDGEHSQNEKINRWNYIEGTKLFAAFFLEMAQLH
MAMKQWIAALLLMLIPGVQAAKPQKVTLMVDDVPVAQVLQALAEQEKLNLVVSPDVSGTVSLHLTDVPWKQALQTVVKSAGLITRQEGNILSVHSIAWQNDNIARQEAEQARAQANLPLENRSITLQYADAGELAKAGEKLLSAKGSMTVDKRTNRLLLRDNKTALSALEQWVAQMDLPVGQVELSAHIVTINEKSLRELGVKWTLADAQHAGGVGQVTTLGSDLSVATATTHVGFNIGRINGRLLDLELSALEQKQQLDIIASPRLLASHLQPASIKQESEIPYQVSSGESGATSVEFKEAVLGMEVTPTVLQKGRIRLKLHISQNVPGQVLQQADGEVLAIDKQEIETQVEVKSGETLALGGIFTRKNKSGQDSVPLLGDIPWFGQLFRHDGKEDERRELVVFITPRLVSSELEHHHHHH
MSLAAPVHAAPLAATASKFLGCAYGAQQAPGFAQYWNKLTPENGGKWGSVEAVRDQMDWSTLDAAYRFAQANQMPFQMHVMVWGNQQPEWIKTLRPAEQRREIEQWFAAVAQRYPDIALLEVVNEPLNDPPSKADTGGGNYLQALGGNGDSGWEWVLQSFRLARRHFPHTKLMINDYSITSSAQATQKYLQIVRLLQRENLVDAIGVQEHAFETTPEVAVSVHRDNLDALAATGLPIYITEFDLDGPTDAQQLADYKRVFPVFWEHPAVHGITLWGFRPGLWRDKEAAYLIRADGTERPALTWLRDYVAAHPGTEGHHHHHH
GSHMDSEIQMENLVERKHHRLARSERSGISDRDAKPTASIRDQLHTIVYRYPPTYVLSSEEQDLVWKFRFYLSSHKKALTKFLKCINWKLEDEVTQALWMLANWAPMDVEDALELLSPTFTHPQVRKYAVSRLAQAPDEDLLLYLLQLVQALKYEDPRHIVHLHGCIFPERDVVRSILDDNGSLLDQSSLSDLSATSSGLHASVIPANQRAASVLAAIKSDKSVSPGSAGGSGSGGQGSVALPNPSAPATPGSSSLPCDSNSNALMLAEGISFGSVPANLCTFLIQRACTNATLANYFYWYLSIEVEEVESVRKQDERAHDMYAMVLKMFLKVLENGNFNLRGIFYNLRKQRRFIDELVKLVKLVAKEPGNRNKKTEKFQKLLAEQDMFKVNFTNFEPIPFPLDPEIYITKIVPMRTSLFKSALMPAKLTFVTSIAHHEYAAIFKHGDDLRQDQLILQMITLMDKLLRRENLDLKLTPYKVLATSSKHGFLQYVDSCTVAEVLAREGNIHNFFRKHHPCDNGPYGISAEVMDTYIKSCAGYCVITYLLGVGDRHLDNLLLTTNGKLFHIDFGYILGRDPKPMPPPMKLSKEMVEAMGGISSEHHHEFRKQCYTAYLHLRRHANVMLNLFSLMVDATVPDIALEPDKAVKKVEENLQLGLTDEEAVQHLQSLLDVSITAVMPALVEQIHRFTQYWRK
